What was measured:
[1] = molecular target: T1, 6506GJ130-1A: Human NKP46 Recombinant Protein (His) (human, UniProt O76036 22-258, limits assumed); assay: SPR, Biacore 8K, antibody captured on Protein A chip, NKp46 as analyte
T1 construct: also called human NKp46 protein; not shown: His tag

[2] = molecular target: T1, 6506GJ130-1A: Human NKP46 Recombinant …; assay: competition ELISA, NKp46-His coated; competitor 1-10 at 20 ug/ml
[3] = molecular target: T1, 6506GJ130-1A: Human NKP46 Recombinant …; assay: competition ELISA, NKp46-His coated; competitor 2-1 at 20 ug/ml
[4] = molecular target: T1, 6506GJ130-1A: Human NKP46 Recombinant …; assay: competition ELISA, NKp46-His coated; competitor 2-10 at 20 ug/ml
[5] = molecular target: T1, 6506GJ130-1A: Human NKP46 Recombinant …; assay: competition ELISA, NKp46-His coated; competitor 2-7 at 20 ug/ml
[6] = molecular target: T1, 6506GJ130-1A: Human NKP46 Recombinant …; assay: competition ELISA, NKp46-His coated; competitor 2-2 at 20 ug/ml
[7] = molecular target: T1, 6506GJ130-1A: Human NKP46 Recombinant …; assay: competition ELISA, NKp46-His coated; competitor 1-4-2 at 20 ug/ml
[8] = molecular target: T1, 6506GJ130-1A: Human NKP46 Recombinant …; assay: competition ELISA, NKp46-His coated; no competitor (Control)
[9] = molecular target: T1, 6506GJ130-1A: Human NKP46 Recombinant …; assay: competition ELISA, NKp46-His coated; competitor 1-2 at 20 ug/ml
[10] = molecular target: T1, 6506GJ130-1A: Human NKP46 Recombinant …; assay: competition ELISA, NKp46-His coated; competitor 1-8 at 20 ug/ml
[11] = molecular target: T1, 6506GJ130-1A: Human NKP46 Recombinant …; assay: competition ELISA, NKp46-His coated; competitor 2-3 at 20 ug/ml
[12] = molecular target: T1, 6506GJ130-1A: Human NKP46 Recombinant …; assay: competition ELISA, NKp46-His coated; competitor 2-5 at 20 ug/ml

T1 sequence (O76036 22-258 limits assumed): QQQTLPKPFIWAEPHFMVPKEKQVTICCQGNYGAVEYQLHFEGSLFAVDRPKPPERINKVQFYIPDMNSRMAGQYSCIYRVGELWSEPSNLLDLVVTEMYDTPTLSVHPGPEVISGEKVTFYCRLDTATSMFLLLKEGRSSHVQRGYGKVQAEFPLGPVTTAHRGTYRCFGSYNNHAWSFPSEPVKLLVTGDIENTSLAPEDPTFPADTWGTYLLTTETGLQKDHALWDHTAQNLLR

Row | Kd [1] [nM] | koff [1] [s⁻¹] | kon [1] [M⁻¹ s⁻¹] | ELISA signal [2] | ELISA signal [3] | ELISA signal [4] | ELISA signal [5] | ELISA signal [6] | ELISA signal [7] | ELISA signal [8] | ELISA signal [9] | ELISA signal [10] | ELISA signal [11] | ELISA signal [12] | Binder
1 | 11 | 0.00866 | 790000 | 1.45 | 1.4 | 1.34 | 1.39 | 1.43 | 1.18 | 1.45 | 1.61 | 0.111 | 1.35 | 0.197 | u6506gj130-1-8 (1-8) (antibody, IgG4, V domains shown, Beacon screening clone; made as mouse/human chimeric IgG4) VH: QVQLQQPGAELVRPGTSVKLSCKASGYTFTSYWMHWVKQRPGQGLEWIGVIDPSDSYTNYNQKFKGKATLTVDTSSSTAYMQLSSLTSEDSAVYYCARSSSAYYSNYEAYWGQGTLVTVSA VL: QIVLTQSPAIMSASPGEKVTISCSASSSVGYMFWYQQKPGSSPKPWIYRTSNLASGVPARFSGSGSGTSYSLTISSMEAEDAATYYCQQYHSYPPMWTFGGGTKLEIK
2 | 1.03 | 0.000542 | 527000 | 0.159 | 0.241 | 0.096 | 0.098 | 0.093 | 0.931 | 1.34 | 1.05 | 1.37 | 0.092 | 1.2 | 32C9F4 (2-2) (antibody, IgG4, V domains shown, Hybridoma clone; made as mouse/human chimeric IgG4) VH: QVQLQQPGAELVKPGASVKLSCKASGYTFTSYWMHWVKQRPGQGLEWIGMIHPNSGVTKYNEKFKSKATLTVDKSSSTAYMQLSSLTSEDSAVYFCAGDGRFAYWGQGTLVTVSA VL: DIQMTQSPSSLSASLGERVSLTCRASQDIGSSLNWLQQEPDGTIKRLIYATSSLDSGVPKRFSGSRSGSDYSLTISSLESEDFVDYYCLQYASSPWTFGGGTKLEIK
3 | 2.78 | 0.00142 | 511000 | 0.133 | 0.204 | 0.106 | 0.093 | 0.088 | 0.637 | 1.41 | 1.1 | 1.4 | 0.146 | 1.24 | 8A10C11 (2-7) (antibody, IgG4, V domains shown, Hybridoma clone; made as mouse/human chimeric IgG4) VH: QVQLQQPGAELVKPGASVKLSCKASGFTFTNYWMHWVKQRPGQGLEWIGMIHPNSGSTNYNEKFKSKATLTVDKSSSTAYMQLSSLTSEDSAVYYCAGGGRLDYWGQGTTLTVSS VL: DIQMTQSPSSLSASLGERVSLTCRASQDIGSSLNWLQQEPDGTIKRLIYATSSLDSGVPKRFSGSRSGSDYSLTISSLESEDFVDYYCLQYASSPFTFGSGTKLEIK
4 | 30 | 0.0113 | 376000 | 0.087 | 0.097 | 0.1 | 0.077 | 0.087 | 0.658 | 1.63 | 1.12 | 1.6 | 0.093 | 1.32 | 45A10D5 (2-1) (antibody, IgG4, V domains shown, Hybridoma clone; made as mouse/human chimeric IgG4) VH: QVQLQQPGAELVKPGASVKLSCKASGYTFTSYWMHWVKQRPGQGLEWIGMIHPNSGSTNYNEKFKSKATLTVDKSSSTAYMQLSSLTSEDSAVYYCVYDGRFAYWGQGTLVTVSA VL: DIQMTQSPSSLSASLGERVSLTCRASQDIGSSLNWLQQEPDGTIKRLIYATSSLDSGVPKRFSGSRSGSDYSLTISSLESEDFVDYYCLQYASSPFTFGSGTKLEIK
5 | 1.29 | 0.000615 | 476000 | 0.176 | 0.245 | 0.083 | 0.123 | 0.154 | 0.724 | 1.27 | 0.998 | 1.3 | 0.091 | 1.13 | 8D5A6C1 (2-10) (antibody, IgG4, V domains shown, Hybridoma clone; made as mouse/human chimeric IgG4) VH: QVQLQQPGAELVKPGASVRLSCKAFGYTFTSYWMHWVKQRPGQGLEWIGMIHPNSGVTKYNEKFKSKATLTVDKSSSTAYMQLSSLTSEDSAVYFCAGDGRFAYWGQGTLVTVSA VL: DIQMTQSPSSLSASLGERVSLTCRASQDIGNSLNWLQQEPDGTIKRLIYATSSLDSGVPKRFSGSRSGSDYSLTISSLESEDFVDYYCLQYASSPWTFGGGTKLEIK
6 | 4.29 | 0.00012 | 27900 | 1.19 | 1.24 | 1.24 | 1.15 | 1.23 | 0.178 | 1.54 | 0.1 | 1.63 | 1.28 | 1.46 | u6506gj130-1-2 (1-2) (antibody, IgG4, V domains shown, Beacon screening clone; made as mouse/human chimeric IgG4 (mouse variable regions, human constant region)) VH: EVQLQQSGPELVKPGASVKISCQASGYTFTDYYLNWVKQSHGKSLEWIGDIDPHNGGTSYNQKFKDKATLTVDKSSSTAYMELRSLTSEDSAVYYCARFPIYYSGSSPMDYWGQGTSVTVSS VL: DIQMTQSPASLSASVGETVTITCRTNENIFSYLAWYQQKQGKSPQLLVYNAKTLAEGVPSRFSGSASGTQFSLKINTLQPEDFGSYYCQHHYGTPYTFGGGTKLEII
7 | 9.34 | 0.00229 | 246000 | 0.095 | 0.121 | 0.097 | 0.08 | 0.086 | 0.895 | 1.6 | 1.04 | 1.71 | 0.092 | 1.44 | u6506gj130-1-10 (1-10) (antibody, IgG4, V domains shown, Beacon screening clone; made as mouse/human chimeric IgG4) VH: QVQLQQPGAELVKPGASVKLSCKASGYIFTSYWMHWVKQRPGQGLEWIGMIHPNSGSTNYNEKFKSKATLTVDKSSSTAYMQLSSLTSEDSAVYYCAREGNWARGYFEYWGQGTTLTVSS VL: DIKMTQSPSSMYASLGERVTITCKASQDINSYLSWFQQKPGKSPKTLIYRANRLVDGVPSRFSGSGSGQDYSLTISSLEYEDVGMYYCLQYDEFPYTFGGGTKLEIK
8 | 4.96 | 0.000116 | 23400 | 1.4 | 1.28 | 1.3 | 1.33 | 1.28 | 0.612 | 1.31 | 1.3 | 1.29 | 1.27 | 0.201 | 21C9E9 (2-5) (antibody, IgG4, V domains shown, Hybridoma clone; made as mouse/human chimeric IgG4) VH: DVQLQESGPGLVKTSQSLSLTCSVTGYSITSDDYWNWIRQFPGNKLEWVGYISYDGSNNYNPSLKNRISITRDTSKNQFFLKLNSVTTEDTATYYCARLGYPAMDSWGQGTSVTVSS VL: DIKMTQSPSSMYASLGERVTITCKASQDINSYLSWFQQKPGKSPKTLIYRANRLVDGVPSRFSGSGSGQDYSLTISSLEFEDLGIYYCLQYDEFPWTFGGGTKLEIK
9 | 18.3 | 0.0038 | 207000 | 0.662 | 0.764 | 0.691 | 0.686 | 0.829 | 0.082 | 1.44 | 0.1 | 1.24 | 0.785 | 0.852 | u6506gj130-1-4-vk2 (1-4-2) (antibody, IgG4, V domains shown, Beacon screening clone; made as mouse/human chimeric IgG4) VH: DVQLQQSVAELVRPGASVNLSCTASGFNIKNTYMHWVKQRPEQGLEWIGMIDPANGNTKYAPKFQGKATITADTSSNTAYLHLSSLTSEDTAIYYCARWAYDGYYESYFDYWGQGTTLTVSS VL: SIVMTQSPKFLLVSAGDRVTITCKASQSVSNDVAWYQQKPGQSPKLLIYYASNRYTGVPDRFTGSGYGTDFTFTISTVQAEDLAVYFCHQDYSSPFTFGSGTKLEIK

Reference: patent publication EP4653461A1 (DE NOVO BIOTHERAPEUTICS CO., LTD., dated 2025)
